Measurements from the domain aggregation screens of Martell et al. (2025).

Assay: soluble fraction after stress (log2 fold change); higher = more stays soluble; pooled small domains, quantitative proteomics
Settings: stress: 75 degC
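Also: 20 min heating vs room temperature control held 20 min.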

Sequence	soluble fraction (log2)
HMLTIQNYFNQVKNIDWEQVPAALSKGHQLVEGASQNNWSAYHSNANIQRVVEAYFQKLNDYLEKN	-0.0425
HMLTKGDRQSIRDSIIYMVGNAPRTLDYIVAESRYSEEDVIEAVRSLLSSHILSIDDSDMISLTRK	-1.02
HMLTNNYKNDKALRFAKNHGIHESNILKLVSLYENAPEKGFNAQSIAELLGITPRSASRILVKLLQHNLIR	-1.8
HMLTPSRVLPYLFEDSFFIDTLSLEKDQVVGFLEYIDERLPPQDLMNKSKEFELIDYLINESEAYLSQ	-0.00122
HMLTQEEITRRRGEILTAAMGVILRKGFLETSMREIAEAAGVGKSTLYDYFPSKDEIMIAYVVD	-0.97
HMLTRYNVNYYYNGEILQRRKVAEGSAAERITYLSGSLEVTDWYTEADLLRKYDFTEPVTGDLNLYAFARI	-1.42
HMLTSAQLAEIRQAVRAGQASVVEDLLKNGASPNFRMENGDTGFTYAVRADTPQVAEALLKSGKL	-0.00532
HMLTTIRKATVNDKTRIMEIYAYARQFMAEHGNPNQWKNNNPSEETIDNDIAKQEMYVIETDGEVHAVFY	-1.64
HMLVDWNYLEGKRGVTTTPLTPSGKARFGDDVVNVLSDGVLVSTGTPVRVLQVLGNRVLVEPLDG	-0.21
HMLVGRDPQALILGSMPSEKSLEEDEYYAHPRNRFWSLMNWLLAGNKTRPAYKTGIEILSSHGIALWV	-0.358
HMLVIMKTGASEEEIGRVIERIEGEGLSAHVSRGTERTVIGVIGQGVDVHRIAGVLGGMSGVESLVPIS	0.0604
HMLVLAENMDVIFTRRTLDDHVVVDYKTTIGEMVKNDEIKGENMDELISAVEKDGYELVSSTSGEIIFLND	-1.01
HMLVVEPSAELKTIIDKTASFVARNGPEFEARIKNEQNNAKFSFLQPNDPFNPYYRAKIVELGGTV	0.0126
HMLVYQRLDKDNFIFEGKTLLNDIYKILDIESNYFEAIRGEADSIAGLLLEIAKSIPTINTEF	-0.362
HMLYEDVQVPNVRYWKSRDAKKQLEDLGLRVLTEHVNDAYIQSDQVIRTSPEIGDTLRTGDTVTLYVSDG	0.163
HMMKLSKRQEQIIAVVKEHQPVSGERISDILAVSRATLRSDLSFLTLSGILKASPKVGYTYES	-3.4
HMMLVKKMLNGIMMKEITIKELADQYDVSTRTIQLKIKKLGYEWDSKESIYRYVGKESEPLDVDFSTLI	-3
HMMQEIKLEVINNEELRIDNYINLAGIGLSRSYIQKLIKDGVILVNGKEVKSSYKVSLGDIISVQIPDPG	-0.436
HMMVIMRANATEPQIANVVAYVEKNGLNAHLSRGAERTVIGVVGDIRRVSKETFELMDGVDSVMRIS	-0.631
HMNADKEALIAAAYRNSLIENFGTENVERYEERFNKWADKHDRQGMPMYPTIEKWMNEDNIA	0.0631
HMNADRIVGQTAKVIHPITPDEKGRVMVDNLDWAAAAQNRGESFEVGEEVSIVRIEGVTVYVQK	-0.234
HMNADTVIGKAGTVIEKIDNVAATGAVKIDGKVWTARSERDNITIDEGTLVKAMAIEGVKLIVEPVT	0.139
HMNAEGLIGREAVALTAVDAHGGRVRLGGEEWSARLSKENGGVSRLSVGDPVRVTDIDGAIAVVAP	0.118
HMNAEQLAQVRRQKIGFIFQDFRLFPEYTVRDNILIPFYLDHRAPDEQMLHKLTGILGIAGKLHSRPAQL	-0.181
HMNAKVVAPIPGTVLSIDIKVGDVIKIGDRLLVLEAMKMENNIASEKSGTVTAVHVKVGQQVLQNELMIEL	-2.17

Sequence	soluble fraction (log2)
HMNALNDLESKIFEEVVKAPEIIMNMTIREFASTVHASPTTIVRMTHKLGFSGWNELKTYLQKQKHQIS	-1.72
HMNALREVNTSILNVRSGAGTNYSKIGSLTQATRVSVISESNGWSKINYNGKVGYVSSQYLS	-1.53
HMNAMKPVLTVSLGVHTDSLSRRLNEEGIIYRWQQAASEQLLLVDSESSSERIAELIHDWRLEQSSS	-0.0158
HMNANTILNSQRILTQLGFNPGPIDGAFGAKTKGALNAFYTSIGKSYDGLLDSNELVELQKALDVSGLKN	-0.524
HMNDADAHASVDAALKHLEALAETTPEVRAALELVRRGPDGRVTVDSFARVAEALREISIAVGAS	0.024
HMNDELMEQIDEWHKAEKHQEIIDALEQIPEAERDFETTGFLARAYNNIEEYAKAADLLESVRE	0.0973
HMNDGEIAAPVSGTLQSFKVEDGQTVSEGDLVAVMEAMKMETQILATKGGTIRLLVKEGDYLQAGHALMTI	-0.667
HMNDGTIRVGTNVTIKPSAKRWATGQNIYYGVKGKTYKVIQMNGNRLLLDKVISWINKGDVYVPGS	-0.741
HMNDIDRFIEALIEQDTLPGTNSRINEDVISEMKMMTSVEDIKAYAIATVGLTGGQVNNALINSGL	-0.072
HMNDIVKIYTTHRIINIEGLAKNEPIMLYTINGTLIDKSVSSNGSAQLHVKGIGVYLVKWANNIVKVIVPN	-4.81
HMNDLDSLWDIWENLNERGIGDKSEEGQELRDAIREFIDTNELNVRVTRNKTNEDLLTDIEDALEVAKNS	-0.588
HMNDLIFSTLAEYDRDTITEIISVVDNTRGIGYEVELVRKDLIAMAAQAEARRDYLPSVIGDVEVFKRNLL	0.354
HMNDNQNKQMLWELLKDNRAFDNFDNKDYKTIIHLFNETVNTIDHRTPNLDLIKKNKIFIQDIMQKLSNL	-1.46
HMNDSGIIGVVINDHEKYEGHVLEDGFISSSLSALSREIDVAGYFMMVKTVVYEGFFQELKGIGNV	0.16
HMNDTNEEAVLSIILKNPQATQGAIAKEVGASLSTVKRIMRNLQKSGKLRREGTNRNGSWVVTGQK	-0.289
HMNDTPPELRAALDLLGLKWPLASVELRARYKDLAKQHHPDATGGDKQAEERLKDINRAYSLLKHRLAKQ	-0.143
HMNDTVGMNIRRLRKERGMTQGDLADKAGIQRETISKYESNKLTPPSYNLESIEKALKVPAGTLAQ	0.176
HMNDYIGVDRAKEIALNHARMNESDVQFAKAKLENDDGVVEYEIEFYFGRTEYDYTIDAVSGNIIEYDVEY	-1.86
HMNEDDQLLKVLLAEPLRLEELYNLDLKPQGPYNLQTWIMVHLTELERDGLIARFPDGRYGPAR	-2.03
HMNEFAYLIKISPEHNNNRYYRMVAEGDNFRIEMGRIGASPVQMKRPMYLWNETYQKKLQEGYTDRTSYTS	-1.85
HMNEIDLEAAKRIALQNAGVESADAAFTKAQLDYDDGVAEYEIEFVAGSTKYEYEISAANGTVLKSSKESV	-0.0387
HMNEIEIHINKLFGKISDSKRKQELMQEITQNLNEKVSDLVSQGQTREQAVKKAIEDFGDIDDLKDELDN	0.312
HMNEIYHQIKVDNVSDDDISLFQYSGIEFDHADYRRGEYIEFAISNRDLSILNNLGYEYQVVHH	-0.872
HMNEKAALIFNEWSDFVSKDDEANAQIKFDELITLYKKTGYTKIALLEVATKQASNGDIEGALAKYSLLID	0.128
HMNEKTGTLTVYSSPGWAKVYIDGEYKGITPVMANLTYGDHYVKLTLDGYDSIGNHIDVNSPDQSYTGKF	-0.768
